Source: patent US8962697

T1: LAR-7048
T1 chain: PRRICV

T2: LAR-7047
T2 chain: VFFRRQTA

T3: LAR-7009
T3 chain: PRRRRPRQITA

B1: Aureolysin (protein)
chain: AAATGTGKGVLGDTKDININSIDGGFSLEDLTHQGKLSAYNFNDQTGQATLITNEDENFVKDDQRAGVDANYYAKQTYDYYKNTFGRESYDNHGSPIVSLTHVNHYGGQDNRNNAAWIGDKMIYGDGDGRTFTNLSGANDVVAHELTHGVTQETANLEYKDQSGALNESFSDVFGYFVDDEDFLMGEDVYTPGKEGDALRSMSNPEQFGQPSHMKDYVYTEKDNGGVHTNSGIPNKAAYNVIQAIGKSKSEQIYYRALTEYLTSNSNFKDCKDALYQAAKDLYDEQTAEQVYEAWNEVGVE
B2: Matrix Metalloproteinase-9 (protein)
chain: MRTPRCGVPDLGRFQTFEGDLKWHHHNITYWIQNYSEDLPRAVIDDAFARAFALWSAVTPLTFTRVYSRDADIVIQFGVAEHGDGYPFDGKDGLLAHAFPPGPGIQGDAHFDDDELWSLGKGVVVPTRFGNADGAACHFPFIFEGRSYSACTTDGRSDGLPWCSTTANYDTDDRFGFCPSERLYTQDGNADGKPCQFPFIFQGQSYSACTTDGRSDGYRWCATTANYDRDKLFGFCPTRADSTVMGGNSAGELCVFPFTFLGKEYSTCTSEGRGDGRLWCATTSNFDSDKKWGFCPDQGYSLFLVAAHEFGHALGLDHSSVPEALMYPMYRFTEGPPLHKDDVNGIRHLYGPRPEPEPRPPTTTTPQPTAPPTVCPTGPPTVHPSERPTAGPTGPPSAGPTGPPTAGPSTATTVPLSPVDDACNVNIFDAIAEIGNQLYLFKDGKYWRFSEGRGSRPQGPFLIADKWPALPRKLDSVFEERLSKKLFFFSGRQVWVYTGASVLGPRRLDKLGLGADVAQVTGALRSGRGKMLLFSGRRLWRFDVKAQMVDPRSASEVDRMFPGVPLDTHDVFQYREKAYFCQDRFYWRVSSRSELNQVDQVGYVTYDILQCPED

Key:
LAR-7048 = target: T1, LAR-7048
LAR-7047 = target: T2, LAR-7047
LAR-7009 = target: T3, LAR-7009

Protein	degradation of the control peptide (LAR-7048)	degradation of the control peptide (LAR-7047)	hydrolysis of the peptide substrate, fragments by mass spectrometry (LAR-7009)
B1	No degradation was observed in these systems	No degradation was observed in these systems	–
B2	No degradation was observed in these systems	No degradation was observed in these systems	Degradation of LAR-7009 ... produced specific fragment pick: 1121.66 corresponding to [..] sequence
